A word on the Kd: it is the equilibrium constant for the complex coming apart. Low values mean tighter binding, high ones weaker binding. For orientation: stoichiometry N means a count of units in the complex or per binding partner.

For the assay, the target named is 6xHis-FN1, the first fibronectin type III repeat (FN1) of the neural cell adhesion molecule NCAM. Kind of assay: ITC. (In general: Isothermal titration calorimetry measures the heat released or taken up as one component is titrated into another.)

On to “6xHis-SUMO-PBR, ST8Sia-IV polybasic region peptide (residues 75-100) fused to an N-terminal 6xHis-SUMO tag (from UniProt Q92187 75-100)”, for which the Kd is 10.9 µM, the dH is 0.991 kcal/mol and the stoichiometry N was determined as 1.06.

Source of the values: publication PMC5577389.
